In patent publication US20240108766A1 (Bayer, published 2024):

T1: human LRRC15 extracellular domain with C-terminal His tag (human, UniProt Q8TF66 22-538)
T1 construct: Recombinant, made in HEK293; the entry holds the extracellular domain and the His tag; SPR analyte; also called TPP-1545; hLRRC15 CT-His
T1 sequence: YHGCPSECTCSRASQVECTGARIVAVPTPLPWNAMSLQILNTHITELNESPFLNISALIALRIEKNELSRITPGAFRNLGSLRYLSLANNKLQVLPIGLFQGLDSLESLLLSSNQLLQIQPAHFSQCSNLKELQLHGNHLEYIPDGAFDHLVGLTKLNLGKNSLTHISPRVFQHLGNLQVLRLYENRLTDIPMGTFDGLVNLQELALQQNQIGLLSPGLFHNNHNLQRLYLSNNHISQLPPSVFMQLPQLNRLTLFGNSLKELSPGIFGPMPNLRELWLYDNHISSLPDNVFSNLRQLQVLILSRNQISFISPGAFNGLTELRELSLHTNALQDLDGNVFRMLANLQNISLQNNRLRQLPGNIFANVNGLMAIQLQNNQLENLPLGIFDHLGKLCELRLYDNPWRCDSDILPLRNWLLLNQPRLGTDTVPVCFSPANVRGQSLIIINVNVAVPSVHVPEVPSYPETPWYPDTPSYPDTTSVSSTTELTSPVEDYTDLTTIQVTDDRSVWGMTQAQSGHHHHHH

T2: cynomolgus (Macaca fascicularis) LRRC15 extracellular domain with C-terminal His tag (cynomolgus monkey (Macaca fascicularis), UniProt Q8TF66 22-538 (human entry))
T2 construct: Recombinant, made in HEK293; the entry holds the extracellular domain and the His tag; SPR analyte; also called TPP-9046
T2 chain: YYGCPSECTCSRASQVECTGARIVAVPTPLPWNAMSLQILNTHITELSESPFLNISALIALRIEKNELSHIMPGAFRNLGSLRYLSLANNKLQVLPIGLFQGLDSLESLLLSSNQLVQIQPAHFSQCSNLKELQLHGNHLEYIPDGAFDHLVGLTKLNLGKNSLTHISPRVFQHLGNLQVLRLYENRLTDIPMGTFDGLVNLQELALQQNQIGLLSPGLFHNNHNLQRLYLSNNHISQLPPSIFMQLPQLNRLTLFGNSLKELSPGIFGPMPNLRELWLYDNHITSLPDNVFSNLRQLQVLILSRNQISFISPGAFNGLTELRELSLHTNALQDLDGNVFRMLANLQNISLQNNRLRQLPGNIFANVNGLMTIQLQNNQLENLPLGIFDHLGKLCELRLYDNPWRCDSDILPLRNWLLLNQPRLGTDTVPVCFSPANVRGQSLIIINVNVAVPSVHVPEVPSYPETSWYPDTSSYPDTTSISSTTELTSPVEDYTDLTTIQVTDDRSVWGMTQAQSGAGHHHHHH

T3: human LRRC15 expressed on cells (human, UniProt Q8TF66 22-581)
T3 construct: whole, on cells; On HEK293 cells transfected with LRRC15/ZsGreen1 (Retrogenix), on HT29 cells transfected with human LRRC15, and endogenous on Saos-2; also called LRRC15/ZsGreen1 transfected HEK293 cells; HT29-LRRC15
T3 sequence (looked up): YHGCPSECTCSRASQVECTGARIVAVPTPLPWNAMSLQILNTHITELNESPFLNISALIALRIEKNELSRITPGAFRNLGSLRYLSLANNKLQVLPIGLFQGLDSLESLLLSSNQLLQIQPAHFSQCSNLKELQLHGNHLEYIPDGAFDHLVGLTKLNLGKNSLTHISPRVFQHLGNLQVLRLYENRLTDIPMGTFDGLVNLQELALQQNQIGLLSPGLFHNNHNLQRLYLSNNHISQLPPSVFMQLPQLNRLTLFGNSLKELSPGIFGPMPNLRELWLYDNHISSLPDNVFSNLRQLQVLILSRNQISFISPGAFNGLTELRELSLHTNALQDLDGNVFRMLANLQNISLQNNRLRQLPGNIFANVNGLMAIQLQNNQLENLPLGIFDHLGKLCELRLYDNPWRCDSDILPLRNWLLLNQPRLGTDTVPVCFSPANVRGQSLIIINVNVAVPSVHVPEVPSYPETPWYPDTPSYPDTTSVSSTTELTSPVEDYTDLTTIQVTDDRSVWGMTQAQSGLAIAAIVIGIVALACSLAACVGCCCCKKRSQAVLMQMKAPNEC


Legend:
[1] = target: T1, human LRRC15 extracellular domain with …; experiment: calculated from SPR kd, 37°C
Method: To assess if anti-LRRC-15 antibodies show a difference in binding at different temperatures, binding assays were conducted using surface plasmon resonance (SPR). Binding assays were performed on a Biacore T200 instrument at temperatures of 10° C., 20° C., 25° C. and 37° C. with assay buffer HBS EP+, 1 mg/ml BSA (bovine serum albumine), 300 mM NaCl, 0.05% NaN₃. Antibodies were captured via anti-human Fc IgGs covalently amine coupled to a CM5 sensor chip and human LRRC15 was used as an analyte in a concentration series from 1.56-200 nM in multi cycle kinetics mode. Pre-experiments were conducted to have an equal capture level at each temperature. Obtained sensorgrams were fitted to a 1:1 Langmuir binding model to derive kinetic data.

[2] = target: T2, cynomolgus (Macaca fascicularis) LRRC15 …; experiment: SPR Biacore T200, 25°C, antibody captured, LRRC15 analyte
Method: To assess the binding kinetics and affinity of anti-LRRC15 antibodies as well as their species cross-reactivity profile, binding assays were conducted using surface plasmon resonance (SPR). Binding assays were performed on a Biacore T200 instrument at 25° C. using assay buffer HBS EP+, 1 mg/ml BSA, 300 mM NaCl, 0.05% NaN3. Antibodies were captured via anti-human Fc IgGs covalently amine coupled to a CM5 sensor chip and human, mouse and cynomolgus LRRC15 were used as analytes in a concentration series from 1.56-200 nM in multi cycle kinetics mode. […] Obtained sensorgrams were fitted to a 1:1 Langmuir binding model to derive kinetic data.

[3] = target: T3, human LRRC15 expressed on cells; experiment: flow cytometry, transfected HEK293, 0.02 µg/ml

Row | Complex Half Life [1] | Kd [2] | Median Fluorescence AF647 [3] | Binder
1 | 0.6 min | 9 nM |  | TPP-14389 (antibody, human IgG1, kappa, V domains shown, also called 13612-rec02-hIgG1Kappa) VH: EVQLLESGGGLVQPGGSLRLSCAASGFTFSGYMMSWVRQAPGKGLEWVSGIYPSPGYTYYADSVKGRFTISRDNSKNTLYLQMNSLRAEDTAVYYCAREKASDLFGSYSEALDYWGQGTLVTVSS VL: DIQMTQSPDSLSASVGDRVTITCRASQDVGSWLAWYQQKPGKAPKLLIFAASSLESGIPSRFSGSGSGTDFTLTISSLQPEDFATYYCQQANGFPLTFGGGTKVEIKR
2 | 1.6 min | 36 nM | 63400 | TPP-12942 (antibody, human IgG1, kappa, V domains shown, Prior art humanized IgG1 kappa antibody, used as comparator; also called huM25; huM25-hIgG1Kappa) VH: EVQLVQSGAEVKKPGASVKVSCKASGYKFSSYWIEWVKQAPGQGLEWIGEILPGSDTTNYNEKFKDRATFTSDTSINTAYMELSRLRSDDTAVYYCARDRGNYRAWFGYWGQGTLVTVSS VL: DIQMTQSPSSLSASVGDRVTITCRASQDISNYLNWYQQKPGGAVKFLIYYTSRLHSGVPSRFSGSGSGTDYTLTISSLQPEDFATYFCQQGEALPWTFGGGTKVEIKR
3 | 17.5 min | 1.8 nM | 83700 | TPP-17078 (antibody, human IgG1, kappa, V domains shown, also called 438H-M308-H05-hIgGkappa) VH: EVQLVQSGAEVKKPGASVKVSCKASGYKFSSYWIEWVKQAPGQGLEWIGEILPGSDTTNYNEKFKDRATFTSDTSINTAYMELSRLRSDDTAVYYCARDRGNYRAWFGYWGQGTLVTVSS VL: DIQMTQSPSSLSASVGDRVTITCRASQSISSYLNWYQQKPGGAPKFLIYYASSLQSGVPSRFSGSGSGTDYTLTISSLQPEDFATYYCQQGFSLPWTFGGGTKVEIKR
4 | 64.2 min | 0.91 nM | 35200 | TPP-17421 (antibody, human IgG1, kappa, V domains shown, also called 438H-M306-C11-hIgG1Kappa) VH: EVQLVQSGAEVKKPGASVKVSCKASGYKFSSYWIEWVKQAPGQGLEWIGEILPGSDWTNYNEKFKDRATFTSDTSINTAYMELSRLRSDDTAVYYCARDRGNYRAWFQYWGQGTLVTVSS VL: DIQMTQSPSSLSASVGDRVTITCRASQSISSYLNWYQQKPGGAPKFLIYYASSLQSGVPSRFSGSGSGTDYTLTISSLQPEDFATYYCQQGLELPWTFGGGTKVEIKR
